# Measurements taken from patent US20250002962.
# Experiments:
# [1] = biological target: rS1 domain 5 (S1 D5), P0AG67
# [2] = biological target: ribosomal protein S1 (rS1), P0AG67
# [3] = biological target: rS1 domain 3 (S1 D3), P0AG67
# [4] = biological target: rS1 domain 1 (S1 D1), P0AG67
# [5] = biological target: rS1 domain 2 (S1 D2), P0AG67
# [6] = biological target: rS1 domain 4 (S1 D4), P0AG67
# [7] = biological target: rS1 domain 2 R139A (S1 D2 R139A), P0AG67
# [8] = biological target: rS1 domain 2 R139K (S1 D2 R139K), P0AG67
# [9] = biological target: rS1 domain 6 (S1 D6), P0AG67
# Sequence of BSA, P02769 (P02769 25-607): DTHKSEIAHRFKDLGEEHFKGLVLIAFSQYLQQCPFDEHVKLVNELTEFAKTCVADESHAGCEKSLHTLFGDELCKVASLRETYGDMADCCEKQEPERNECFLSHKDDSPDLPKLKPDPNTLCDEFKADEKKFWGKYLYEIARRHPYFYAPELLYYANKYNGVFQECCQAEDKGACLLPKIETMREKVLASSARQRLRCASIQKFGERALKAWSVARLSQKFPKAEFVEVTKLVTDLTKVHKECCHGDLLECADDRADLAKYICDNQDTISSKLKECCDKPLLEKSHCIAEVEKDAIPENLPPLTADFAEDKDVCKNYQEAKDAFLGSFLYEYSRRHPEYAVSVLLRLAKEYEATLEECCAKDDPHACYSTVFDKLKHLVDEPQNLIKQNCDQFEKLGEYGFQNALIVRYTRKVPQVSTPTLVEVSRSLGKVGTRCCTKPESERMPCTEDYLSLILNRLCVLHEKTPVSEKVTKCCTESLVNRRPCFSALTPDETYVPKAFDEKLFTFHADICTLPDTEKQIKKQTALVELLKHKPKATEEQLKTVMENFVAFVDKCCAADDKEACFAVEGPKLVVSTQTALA
protein,measurement,setting,value
ADP-ribosyltransferase ModB from Escherichia virus T4 (cloned ModB with His6 tag) (protein) MGIINLADVEQLSIKAESVDFQYDMYKKVCEKFTDFEQSVLWQCMEAKKNEALHKHLNEIIKKHLTKSPYQLYRGISKSTKELIKDLQVGEVFSTNRVDSFTTSLHTACSFSYAEYFTETILRLKTDKAFNYSDHISDIILSSPNTEFKYTYEDTDGLDSERTDNLMMIVREQEWMIPIGKYKITSISKEKLHDSFGTFKVYDIEVVELVPRGSLEHHHHHH,RNAylation assay with single S1 domains,[1],"rS1 D1, D3, D4 and D5 domains were modified to a much lesser extent"
same,"RNAylation of rS1 with 32P-labelled 5'-NAD-RNA 8mer (SDS-PAGE, autoradiography)",[2],"ModB rapidly RNAylated its known target, ribosomal protein S1 (rS1) without detectable self-RNAylation"
same,RNAylation assay with single S1 domains,[3],"rS1 D1, D3, D4 and D5 domains were modified to a much lesser extent"
same,RNAylation assay with single S1 domains,[4],"rS1 D1, D3, D4 and D5 domains were modified to a much lesser extent"
same,RNAylation assay with single S1 domains,[5],For rS1 domains D2 and D6 high RNAylation signals were determined
same,"RNAylation with 5'-NXD-10mer-Cy5 RNAs (Tricine gel, band shift)",[5],rS1 DII was RNAylated in the presence of 5'-NXD-RNAs by ModB
same,RNAylation assay with single S1 domains,[6],"rS1 D1, D3, D4 and D5 domains were modified to a much lesser extent"
same,ADP-ribosylation level of D2,[7],the ADP-ribosylation level of D2 is dramatically reduced if R139 is substituted by alanine or lysine
same,ADP-ribosylation level of D2,[8],the ADP-ribosylation level of D2 is dramatically reduced if R139 is substituted by alanine or lysine
same,in vitro RNAylation and ADP-ribosylation (SDS-PAGE),"BSA, P02769","control proteins without S1 domain (BSA, NudC inactive quadruple mutant) were not"
same,RNAylation assay with single S1 domains,[9],For rS1 domains D2 and D6 high RNAylation signals were determined
